Here are results for seven molecules from US9695461B2, “Method for adapting a hydrolytic enzyme to a component that stabilizes the hydrolytic enzyme” (Henkel AG & Co. KGaA, priority 2011, dated 2017).

The data set has as its system protease according to SEQ ID NO: 3. Kind of data set: Relative proteolytic activity with reversible inhibitor in liquid surfactant preparation (Example 1). To be noted: 50% conc. surfactant preparation, 0.92 mM AAPF, 25° C., pH 8.6, relative to same protease without inhibitor; for relative activity, 3-HPBA: 3-HPBA in amount inhibiting starting enzyme by 20-40%; for relative activity, 4-FPBA: 4-FPBA in amount inhibiting starting enzyme by 20-40%; for relative activity, Boric acid: boric acid in amount inhibiting starting enzyme by 20-40%; for relative activity, BMA: benzylmalonic acid in amount inhibiting starting enzyme by 20-40%. Format: biochemical. An excerpt: The relative activity to be determined in process step c) of the hydrolytic enzyme modified in process step b) is given by [measured activity of the hydrolytic enzyme modified in process step b) in the presence of the component that stabilizes the hydrolytic enzyme] divided by [measured activity of the hydrolytic enzyme modified in process step b) in the absence of the component that stabilizes the hydrolytic enzyme] multiplied by 100.
The relative activity of the starting enzyme to be determined in process step c) is given by [measured activity of the starting enzyme in the presence of the component that stabilizes the hydrolytic enzyme] divided by [measured activity of the starting enzyme in the absence of the component that stabilizes the hydrolytic enzyme] multiplied by 100.
The nucleic acid sequence of the hydrolytic enzyme present on a plasmid was modified individually or in combination as indicated in Tables 1 and 2 using site directed mutagenesis by means of specific, adapted primers using a Phusion Hot Start Polymerase at the positions S166, A187, F189 or Q191 in the counting according to SEQ ID NO: 1, and the resulting variants were transformed into a suitable host. Active clones were selected by means of a protease-sensitive medium and the DNA sequence was sequenced after isolation of the plasmid for identification purposes. The modified proteases were expressed in the Bacillus host and prepared for the activity determination.
The activity was determined in a liquid preparation that was constituted as follows (all data in wt %): 0.3-0.5% xanthan, 0.2-0.4% defoamer, 6-7% glycerin, 0.3-0.5% ethanol, 4-7% FAEOS (fatty alcohol ether sulfate), 24-28% non-ionic surfactants, 1-2% sodium citrate (dihydrate), 2-4% soda, 14-16% cocoanut fatty acids, 0.5% HEDP (1-hydroxyethane-(1,1-diphosphonic acid)), 0-0.4% PVP (polyvinyl pyrrolidone) 0-0.5% optical brightener, 0-0.001% % colorant, the remainder being demineralized water.
To a 50% conc. liquid preparation of the liquid surfactant preparation were added 0.92 mM AAPF. The reversible inhibitor to be tested was also comprised in the required amount to inhibit the starting enzyme by 20-40%. 20 μl of the respective protease (starting enzyme as well as modified protease variants) were added and the proteolytic activity determined from the release of the chromophore para-nitroaniline (pNA) from the substrate suc-L-Ala-L-Ala-L-Pro-L-Phe-p-nitroanilide (suc-AAPF-pNA). The protease cleaves the substrate and releases pNA. The released pNA causes the extinction at 410 nm to increase; the change in extinction as a function of time is a measure of the enzymatic activity (see Del Mar et al., 1979). The measurement was carried out at a temperature of 25° C., at pH 8.6 and a wavelength of 410 nm.
The measured activity was compared with the activity of a reference formulation of the same protease sample without inhibitor and the respective relative activities of the modified proteases and the starting enzyme were determined. […] The results are presented in the following Tables 1 and 2 (the relative activities are each given).

B1: S166A: protease of SEQ ID NO: 3 with amino acid substitution S166A in the count according to SEQ ID NO: 1 (protein, listed as Bacillus lentus)
chain: AQSVPWGISRVQAPAAHNRGLTGSGVKVAVLDTGISTHPDLNIRGGASFVPGEPSTQDGNGHGTHVAGTIAALNNSIGVLGVAPSAELYAVKVLGADGEGAISSIAQGLEWAGNNGMHVANLSLGSPSPSATLEQAVNSATSRGVLVVAASGNSGASSIAYPARYANAMAVGATDQNNNRASFSQYGAGLDIVAPGVNVQSTYPGSTYASLNGTSMATPHVAGAAALVKQKNPSWSNVQIRNHLKNTATSLGSTNLYGSGLVNAEAATR
Regarding B1, for the setting “Table 1”, the “relative activity, 3-HPBA” value was 83%; the “relative activity, 4-FPBA” value was determined as 61%; the “relative activity, Boric acid” value turned out to be 76%.

B2: S166G: protease of SEQ ID NO: 3 with amino acid substitution S166G in the count according to SEQ ID NO: 1 (protein, listed as Bacillus lentus)
chain: AQSVPWGISRVQAPAAHNRGLTGSGVKVAVLDTGISTHPDLNIRGGASFVPGEPSTQDGNGHGTHVAGTIAALNNSIGVLGVAPSAELYAVKVLGADGEGAISSIAQGLEWAGNNGMHVANLSLGSPSPSATLEQAVNSATSRGVLVVAASGNSGASSIGYPARYANAMAVGATDQNNNRASFSQYGAGLDIVAPGVNVQSTYPGSTYASLNGTSMATPHVAGAAALVKQKNPSWSNVQIRNHLKNTATSLGSTNLYGSGLVNAEAATR
Turning to B2, for the setting “Table 2”, the “relative activity, BMA” value stood at 80% and the “relative activity, Boric acid” value worked out at 65%.

B3: F189R: protease of SEQ ID NO: 3 with amino acid substitution F189R in the count according to SEQ ID NO: 1 (protein, listed as Bacillus lentus)
chain: AQSVPWGISRVQAPAAHNRGLTGSGVKVAVLDTGISTHPDLNIRGGASFVPGEPSTQDGNGHGTHVAGTIAALNNSIGVLGVAPSAELYAVKVLGADGEGAISSIAQGLEWAGNNGMHVANLSLGSPSPSATLEQAVNSATSRGVLVVAASGNSGASSISYPARYANAMAVGATDQNNNRASRSQYGAGLDIVAPGVNVQSTYPGSTYASLNGTSMATPHVAGAAALVKQKNPSWSNVQIRNHLKNTATSLGSTNLYGSGLVNAEAATR
On to B3, for which, for the setting “Table 2”, the “relative activity, BMA” value is recorded as 80% and the “relative activity, Boric acid” value is reported as 53%.

B4: Q191R: protease of SEQ ID NO: 3 with amino acid substitution Q191R in the count according to SEQ ID NO: 1 (protein, listed as Bacillus lentus)
chain: AQSVPWGISRVQAPAAHNRGLTGSGVKVAVLDTGISTHPDLNIRGGASFVPGEPSTQDGNGHGTHVAGTIAALNNSIGVLGVAPSAELYAVKVLGADGEGAISSIAQGLEWAGNNGMHVANLSLGSPSPSATLEQAVNSATSRGVLVVAASGNSGASSISYPARYANAMAVGATDQNNNRASFSRYGAGLDIVAPGVNVQSTYPGSTYASLNGTSMATPHVAGAAALVKQKNPSWSNVQIRNHLKNTATSLGSTNLYGSGLVNAEAATR
As for B4, where the note is “Table 2”, the “relative activity, BMA” value is listed as 63% and the “relative activity, Boric acid” value is 76%.

B5: A187D/F189R: protease of SEQ ID NO: 3 with amino acid substitutions A187D and F189R in the count according to SEQ ID NO: 1 (protein, listed as Bacillus lentus)
chain: AQSVPWGISRVQAPAAHNRGLTGSGVKVAVLDTGISTHPDLNIRGGASFVPGEPSTQDGNGHGTHVAGTIAALNNSIGVLGVAPSAELYAVKVLGADGEGAISSIAQGLEWAGNNGMHVANLSLGSPSPSATLEQAVNSATSRGVLVVAASGNSGASSISYPARYANAMAVGATDQNNNRDSRSQYGAGLDIVAPGVNVQSTYPGSTYASLNGTSMATPHVAGAAALVKQKNPSWSNVQIRNHLKNTATSLGSTNLYGSGLVNAEAATR
Consider B5, for which, for the setting “Table 2”, the “relative activity, BMA” value amounted to 43% and the “relative activity, Boric acid” value is reported as 37%.

B6: A187D: protease of SEQ ID NO: 3 with amino acid substitution A187D in the count according to SEQ ID NO: 1 (protein, listed as Bacillus lentus)
chain: AQSVPWGISRVQAPAAHNRGLTGSGVKVAVLDTGISTHPDLNIRGGASFVPGEPSTQDGNGHGTHVAGTIAALNNSIGVLGVAPSAELYAVKVLGADGEGAISSIAQGLEWAGNNGMHVANLSLGSPSPSATLEQAVNSATSRGVLVVAASGNSGASSISYPARYANAMAVGATDQNNNRDSFSQYGAGLDIVAPGVNVQSTYPGSTYASLNGTSMATPHVAGAAALVKQKNPSWSNVQIRNHLKNTATSLGSTNLYGSGLVNAEAATR
With B6, for the setting “Table 2”, the “relative activity, BMA” value amounted to 79% and the “relative activity, Boric acid” value worked out at 47%.

B7: S166Y: protease of SEQ ID NO: 3 with amino acid substitution S166Y in the count according to SEQ ID NO: 1 (protein, listed as Bacillus lentus)
chain: AQSVPWGISRVQAPAAHNRGLTGSGVKVAVLDTGISTHPDLNIRGGASFVPGEPSTQDGNGHGTHVAGTIAALNNSIGVLGVAPSAELYAVKVLGADGEGAISSIAQGLEWAGNNGMHVANLSLGSPSPSATLEQAVNSATSRGVLVVAASGNSGASSIYYPARYANAMAVGATDQNNNRASFSQYGAGLDIVAPGVNVQSTYPGSTYASLNGTSMATPHVAGAAALVKQKNPSWSNVQIRNHLKNTATSLGSTNLYGSGLVNAEAATR
Consider B7, for which, for the setting “Table 1”, the “relative activity, 3-HPBA” value turned out to be 58%; the “relative activity, 4-FPBA” value was determined as 100%; the “relative activity, Boric acid” value is 68%.
